Experimental data from the supplement of paper PMC10065799, “High-throughput profiling of sequence recognition by tyrosine kinases and SH2 domains using bacterial peptide display” (eLife, 2023).

What was measured:
FGFR1 = FGFR1 (UniProt P11362); assay: phosphorylation enrichment, bacterial display (enrichment ratio); higher = better substrate or ligand; peptides without Tyr show the background
c-Abl (mouse) = assay: as above
EPHB2 = EPHB2 (UniProt P29323); assay: as above
MERTK = MERTK (UniProt Q12866); assay: as above
Fes = Fes (UniProt P07332); assay: as above
AncSZ = assay: as above
Jak2 = Jak2 (UniProt O60674); assay: as above
Fyn = Fyn (UniProt P06241); assay: as above
Hck = Hck (UniProt P08631); assay: as above
Fer (mouse) = assay: as above
EPHB1 = EPHB1 (UniProt P54762); assay: as above
FGFR3 = FGFR3 (UniProt P22607); assay: as above
c-Src = assay: as above
Grb2 SH2 = Grb2 SH2 (UniProt P62993); assay: SH2 binding enrichment of the phosphorylated peptide, bacterial display (enrichment ratio); higher = better substrate or ligand; peptides without Tyr show the background
c-Src SH2 = assay: as above
SHP2-C SH2 = assay: as above
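Throughout, for SH2 binding enrichment of the phosphorylated peptide, bacterial display: peptide library displayed on the E. coli surface as eCPX fusions, selected cells deep-sequenced, score is each peptide's frequency after selection divided by its frequency in the input.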
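Throughout, for phosphorylation enrichment, bacterial display: 11-residue human phosphosite peptides and single-mutation variants displayed on the E. coli surface, counted by deep sequencing, each peptide's frequency after selection divided by its frequency in the unselected input library; frequency after pTyr selection over input frequency; kinase dosed for 20-30% of maximal phosphorylation in three min.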

Sequence of EPHB2 (P29323 whole entry, looked up): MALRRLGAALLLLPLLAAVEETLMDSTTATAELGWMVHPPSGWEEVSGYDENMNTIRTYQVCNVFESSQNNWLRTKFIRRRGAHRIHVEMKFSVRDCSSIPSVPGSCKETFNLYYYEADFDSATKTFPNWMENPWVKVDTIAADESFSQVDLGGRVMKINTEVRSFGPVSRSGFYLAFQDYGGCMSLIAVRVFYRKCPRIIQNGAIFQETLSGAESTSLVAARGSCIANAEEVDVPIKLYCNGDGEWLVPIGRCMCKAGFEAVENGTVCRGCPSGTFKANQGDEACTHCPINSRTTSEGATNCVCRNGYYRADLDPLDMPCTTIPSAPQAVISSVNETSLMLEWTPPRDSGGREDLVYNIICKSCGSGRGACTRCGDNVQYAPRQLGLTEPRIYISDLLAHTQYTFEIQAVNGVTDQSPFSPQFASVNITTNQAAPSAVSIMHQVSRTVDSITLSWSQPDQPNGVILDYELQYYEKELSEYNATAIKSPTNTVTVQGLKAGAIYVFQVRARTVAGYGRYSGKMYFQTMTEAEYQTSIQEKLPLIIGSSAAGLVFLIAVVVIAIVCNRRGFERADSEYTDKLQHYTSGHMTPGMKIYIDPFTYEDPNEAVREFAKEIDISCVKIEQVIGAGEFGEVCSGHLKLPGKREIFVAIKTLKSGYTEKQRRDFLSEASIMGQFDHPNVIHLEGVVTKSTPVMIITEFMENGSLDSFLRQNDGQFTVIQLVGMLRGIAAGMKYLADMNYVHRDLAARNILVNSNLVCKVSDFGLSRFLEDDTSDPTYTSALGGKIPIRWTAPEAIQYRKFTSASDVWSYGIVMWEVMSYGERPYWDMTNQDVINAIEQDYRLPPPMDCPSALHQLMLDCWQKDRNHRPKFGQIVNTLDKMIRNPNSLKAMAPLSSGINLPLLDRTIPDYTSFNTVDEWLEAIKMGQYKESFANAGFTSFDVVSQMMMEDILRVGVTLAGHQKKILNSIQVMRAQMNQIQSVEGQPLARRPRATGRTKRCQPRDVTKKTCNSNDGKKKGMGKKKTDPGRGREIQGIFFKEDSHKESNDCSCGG
Sequence of Grb2 SH2 (P62993 whole entry, looked up): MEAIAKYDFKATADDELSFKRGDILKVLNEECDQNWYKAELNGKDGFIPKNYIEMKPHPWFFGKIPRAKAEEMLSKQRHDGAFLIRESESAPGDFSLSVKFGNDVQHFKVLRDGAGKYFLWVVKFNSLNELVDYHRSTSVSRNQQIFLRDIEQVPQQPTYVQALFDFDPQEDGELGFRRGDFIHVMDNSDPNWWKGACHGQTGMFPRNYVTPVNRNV
Sequence of Fes (P07332 whole entry, looked up): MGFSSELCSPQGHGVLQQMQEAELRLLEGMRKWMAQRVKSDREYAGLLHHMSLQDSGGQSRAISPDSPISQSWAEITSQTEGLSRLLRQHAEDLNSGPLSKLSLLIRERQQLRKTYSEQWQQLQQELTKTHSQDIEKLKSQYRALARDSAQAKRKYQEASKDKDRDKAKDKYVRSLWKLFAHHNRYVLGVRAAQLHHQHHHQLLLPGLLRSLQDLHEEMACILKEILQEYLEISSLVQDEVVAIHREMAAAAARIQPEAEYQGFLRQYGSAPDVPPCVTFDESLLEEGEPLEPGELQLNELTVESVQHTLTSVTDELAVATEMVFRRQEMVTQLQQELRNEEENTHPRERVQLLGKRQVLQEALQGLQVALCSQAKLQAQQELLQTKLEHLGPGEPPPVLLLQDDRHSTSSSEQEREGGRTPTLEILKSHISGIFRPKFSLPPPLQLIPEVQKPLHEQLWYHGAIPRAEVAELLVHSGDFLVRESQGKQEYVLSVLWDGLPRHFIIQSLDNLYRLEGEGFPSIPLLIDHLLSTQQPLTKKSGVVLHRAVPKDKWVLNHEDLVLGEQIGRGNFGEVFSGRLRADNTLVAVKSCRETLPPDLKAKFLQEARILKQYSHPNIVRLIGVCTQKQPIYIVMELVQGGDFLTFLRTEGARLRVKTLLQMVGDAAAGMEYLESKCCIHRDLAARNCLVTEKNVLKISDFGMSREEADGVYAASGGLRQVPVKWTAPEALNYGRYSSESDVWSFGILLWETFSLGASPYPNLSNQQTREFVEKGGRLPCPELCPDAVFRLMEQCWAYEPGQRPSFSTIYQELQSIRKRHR
Sequence of FGFR1 (P11362 whole entry, looked up): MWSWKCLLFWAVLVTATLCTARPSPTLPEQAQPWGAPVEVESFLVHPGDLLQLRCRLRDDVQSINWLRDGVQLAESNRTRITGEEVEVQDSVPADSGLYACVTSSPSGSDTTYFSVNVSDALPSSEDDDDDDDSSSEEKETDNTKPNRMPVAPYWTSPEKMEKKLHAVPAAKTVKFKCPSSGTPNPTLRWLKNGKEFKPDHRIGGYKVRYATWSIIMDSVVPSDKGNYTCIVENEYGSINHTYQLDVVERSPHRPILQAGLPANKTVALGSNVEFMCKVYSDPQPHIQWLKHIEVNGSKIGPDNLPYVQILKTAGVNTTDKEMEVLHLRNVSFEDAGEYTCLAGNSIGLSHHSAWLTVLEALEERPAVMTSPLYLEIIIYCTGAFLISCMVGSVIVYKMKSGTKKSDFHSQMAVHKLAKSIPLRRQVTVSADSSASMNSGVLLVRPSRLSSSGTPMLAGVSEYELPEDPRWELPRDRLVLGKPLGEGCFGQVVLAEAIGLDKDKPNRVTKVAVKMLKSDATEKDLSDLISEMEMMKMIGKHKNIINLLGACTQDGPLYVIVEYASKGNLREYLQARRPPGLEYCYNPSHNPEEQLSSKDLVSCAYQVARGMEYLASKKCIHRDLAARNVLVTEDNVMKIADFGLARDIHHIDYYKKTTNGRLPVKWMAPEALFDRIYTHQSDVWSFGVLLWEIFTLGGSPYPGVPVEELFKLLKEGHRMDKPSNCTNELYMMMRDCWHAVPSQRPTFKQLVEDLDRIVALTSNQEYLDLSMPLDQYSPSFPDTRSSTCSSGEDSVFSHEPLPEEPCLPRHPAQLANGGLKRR
Sequence of Fyn (P06241 whole entry, looked up): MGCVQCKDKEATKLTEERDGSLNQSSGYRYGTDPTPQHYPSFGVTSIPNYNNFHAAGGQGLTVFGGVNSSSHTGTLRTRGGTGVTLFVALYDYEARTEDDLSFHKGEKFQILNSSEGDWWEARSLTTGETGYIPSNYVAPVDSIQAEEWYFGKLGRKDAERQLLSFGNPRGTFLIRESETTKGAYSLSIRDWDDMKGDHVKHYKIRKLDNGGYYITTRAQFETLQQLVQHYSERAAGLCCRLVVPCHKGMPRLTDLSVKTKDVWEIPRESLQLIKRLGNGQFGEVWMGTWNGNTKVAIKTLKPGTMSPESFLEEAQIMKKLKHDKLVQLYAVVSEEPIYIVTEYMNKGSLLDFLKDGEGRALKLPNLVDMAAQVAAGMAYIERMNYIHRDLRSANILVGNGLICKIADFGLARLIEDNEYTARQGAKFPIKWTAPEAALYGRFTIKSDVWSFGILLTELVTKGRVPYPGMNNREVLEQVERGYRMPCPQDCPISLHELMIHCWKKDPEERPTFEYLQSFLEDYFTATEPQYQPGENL
Sequence of MERTK (Q12866 whole entry, looked up): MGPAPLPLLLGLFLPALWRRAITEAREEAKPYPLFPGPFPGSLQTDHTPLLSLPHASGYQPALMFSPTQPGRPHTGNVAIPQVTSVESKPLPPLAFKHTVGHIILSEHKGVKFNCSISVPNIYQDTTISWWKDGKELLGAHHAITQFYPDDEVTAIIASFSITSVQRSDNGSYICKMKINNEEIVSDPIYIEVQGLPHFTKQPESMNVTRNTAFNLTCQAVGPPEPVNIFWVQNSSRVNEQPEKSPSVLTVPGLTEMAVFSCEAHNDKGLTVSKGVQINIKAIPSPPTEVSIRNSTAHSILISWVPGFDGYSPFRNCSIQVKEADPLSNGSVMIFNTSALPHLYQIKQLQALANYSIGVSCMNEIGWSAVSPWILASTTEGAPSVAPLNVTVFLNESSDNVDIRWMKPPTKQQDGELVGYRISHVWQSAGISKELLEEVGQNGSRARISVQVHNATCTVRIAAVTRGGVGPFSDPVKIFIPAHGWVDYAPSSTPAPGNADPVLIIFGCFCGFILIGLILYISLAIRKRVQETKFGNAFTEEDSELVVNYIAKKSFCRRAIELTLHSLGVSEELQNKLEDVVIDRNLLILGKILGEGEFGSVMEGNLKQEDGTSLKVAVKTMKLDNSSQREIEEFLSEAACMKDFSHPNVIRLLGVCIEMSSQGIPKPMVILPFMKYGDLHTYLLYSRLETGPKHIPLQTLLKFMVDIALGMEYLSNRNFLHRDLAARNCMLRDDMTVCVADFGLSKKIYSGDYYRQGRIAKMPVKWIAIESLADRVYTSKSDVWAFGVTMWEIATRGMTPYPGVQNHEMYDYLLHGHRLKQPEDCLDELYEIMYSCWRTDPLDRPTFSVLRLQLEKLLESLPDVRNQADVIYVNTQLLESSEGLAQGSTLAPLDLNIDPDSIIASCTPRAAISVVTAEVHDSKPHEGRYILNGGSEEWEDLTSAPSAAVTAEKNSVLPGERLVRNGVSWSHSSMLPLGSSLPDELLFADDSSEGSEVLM
Sequence of Hck (P08631 whole entry, looked up): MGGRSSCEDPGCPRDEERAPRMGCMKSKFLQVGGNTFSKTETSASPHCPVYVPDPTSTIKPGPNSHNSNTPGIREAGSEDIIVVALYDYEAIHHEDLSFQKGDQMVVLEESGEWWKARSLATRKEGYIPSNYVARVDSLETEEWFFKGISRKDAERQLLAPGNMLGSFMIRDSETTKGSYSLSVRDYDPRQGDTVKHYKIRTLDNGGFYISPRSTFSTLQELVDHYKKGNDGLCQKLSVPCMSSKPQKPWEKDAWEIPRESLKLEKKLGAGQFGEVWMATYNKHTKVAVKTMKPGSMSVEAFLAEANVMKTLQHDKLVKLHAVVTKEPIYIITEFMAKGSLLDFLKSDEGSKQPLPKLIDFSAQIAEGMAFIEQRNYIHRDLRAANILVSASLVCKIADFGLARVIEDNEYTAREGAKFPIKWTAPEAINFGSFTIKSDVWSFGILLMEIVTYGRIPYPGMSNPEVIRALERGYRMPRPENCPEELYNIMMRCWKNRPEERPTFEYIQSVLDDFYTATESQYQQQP

Row | Sequence | phosphorylation enrichment (FGFR1) | phosphorylation enrichment (c-Abl (mouse)) | phosphorylation enrichment (EPHB2) | phosphorylation enrichment (MERTK) | phosphorylation enrichment (Fes) | phosphorylation enrichment (AncSZ) | phosphorylation enrichment (Jak2) | phosphorylation enrichment (Fyn) | phosphorylation enrichment (Hck) | phosphorylation enrichment (Fer (mouse)) | phosphorylation enrichment (EPHB1) | phosphorylation enrichment (FGFR3) | phosphorylation enrichment (c-Src) | SH2 binding enrichment (Grb2 SH2) | SH2 binding enrichment (c-Src SH2) | SH2 binding enrichment (SHP2-C SH2)
1 | SGRRRYTIAAL [TTR_Y125_P122R] | 0.547 | 0.512 | 0.581 | 0.601 | 0.622 | 0.602 | 0.51 | 0.61 | 0.517 | 0.6 | 0.615 | 0.598 | 0.736 | 0.58 | 0.468 | 0.373
2 | PGQAAYQKVVA [HBB_Y131_V127G] | 0.373 | 0.491 | 0.525 | 0.514 | 0.831 | 0.68 | 0.626 | 0.478 | 0.361 | 0.49 | 0.517 | 0.558 | 0.579 | 0.984 | 0.922 | 0.615
3 | LRSKQYLRNPP [SHC1_Y315_F312S] | 0.277 | 0.575 | 0.359 | 0.364 | 0.619 | 0.376 | 0.355 | 0.452 | 0.4 | 0.413 | 0.426 | 0.37 | 0.399 | 1.05 | 0.783 | 0.82
4 | RIAFQYGVTDL [MYBPC3_Y340] | 0.45 | 0.992 | 0.627 | 0.514 | 1.28 | 1.41 | 1.47 | 0.522 | 0.647 | 0.558 | 0.709 | 1.08 | 0.879 | 0.93 | 0.535 | 0.815
5 | AELVRYYMEHH [PTPN11_Y80_Q79R] | 0.623 | 0.421 | 0.857 | 0.639 | 1.12 | 0.856 | 0.865 | 0.514 | 0.683 | 0.457 | 1.03 | 0.673 | 0.486 | 0.89 | 0.69 | 0.875
6 | CTTIHYNYICN [TP53_Y234_M237I] | 0.587 | 0.519 | 0.505 | 0.518 | 0.91 | 0.864 | 0.682 | 0.457 | 0.521 | 0.654 | 0.513 | 0.654 | 0.532 | 1.75 | 9.21 | 4.45
7 | RHYVYYYSYLL [PTEN_Y177_R173H] | 7.03 | 1.35 | 2.13 | 5.71 | 2.26 | 1.89 | 3.46 | 1.59 | 2.49 | 1.37 | 2.69 | 6.42 | 2.18 | 1.03 | 0.536 | 0.906
8 | QSPQLYKQLCI [DARS1_Y253_M256L] | 0.653 | 0.449 | 0.957 | 0.432 | 1.12 | 1.02 | 0.875 | 0.719 | 0.706 | 0.483 | 0.511 | 1.05 | 0.53 | 0.585 | 0.432 | 0.625
9 | NPQKPYFIRLY [WAS_Y83_S82P] | 0.395 | 0.544 | 0.599 | 0.344 | 1.08 | 1.01 | 0.906 | 0.354 | 0.443 | 0.474 | 0.561 | 0.675 | 0.303 | 0.909 | 0.542 | 0.699
